{"source": "patent US20140087995A1", "about": "(published 2014)", "note": "Numbered stars: 1 amine (or outer) side, 2 acyl side, 3 side chain; on linkers, the order of the positions; unused ones are H or OH. Bridge positions count the residues as written; N and C are the ends. Side chains are listed from the residue outwards. Ends that are not written are not given here. * marks the point of attachment. C20 diacid = O=C(O)CCCCCCCCCCCCCCCCCCC(=O)*; γGlu = O=C(O)[C@H](CCC(=O)[*:2])N[*:1]; AEEA = NCCOCCOCC(=O)O", "data": [{"molecular_target": "T1, human calcitonin receptor (human, UniProt P30988 25-474)", "T1 sequence (looked up)": "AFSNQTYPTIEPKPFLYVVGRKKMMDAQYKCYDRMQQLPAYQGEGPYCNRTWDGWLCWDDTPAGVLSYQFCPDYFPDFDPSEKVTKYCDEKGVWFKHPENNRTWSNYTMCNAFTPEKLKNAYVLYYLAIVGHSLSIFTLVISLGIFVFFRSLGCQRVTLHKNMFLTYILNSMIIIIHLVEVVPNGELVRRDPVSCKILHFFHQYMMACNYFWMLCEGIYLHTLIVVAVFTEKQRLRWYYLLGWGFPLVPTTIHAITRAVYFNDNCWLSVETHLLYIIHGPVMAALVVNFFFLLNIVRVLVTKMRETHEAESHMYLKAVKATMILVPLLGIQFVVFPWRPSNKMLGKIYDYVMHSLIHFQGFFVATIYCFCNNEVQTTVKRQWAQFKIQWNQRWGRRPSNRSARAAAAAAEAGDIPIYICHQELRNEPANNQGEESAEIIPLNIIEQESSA", "assay": "cell-based or functional assay", "units": {"hCTR funct. EC50": "nM"}, "values": [{"binder": "{C20 diacid-γGlu}-KCNTATCATQRLAEFLRHSSPNFGAIPSSTNVGHNTY-NH2 (disulfide 2-7; SMILES CC[C@H](C)[C@H](NC(=O)[C@H](C)NC(=O)CNC(=O)[C@H](Cc1ccccc1)NC(=O)[C@H](CC(N)=O)NC(=O)[C@@H]1CCCN1C(=O)[C@H](CO)NC(=O)[C@H](CO)NC(=O)[C@H](Cc1c[nH]cn1)NC(=O)[C@H](CCCNC(=N)N)NC(=O)[C@H](CC(C)C)NC(=O)[C@H](Cc1ccccc1)NC(=O)[C@H](CCC(=O)O)NC(=O)[C@H](C)NC(=O)[C@H](CC(C)C)NC(=O)[C@H](CCCNC(=N)N)NC(=O)[C@H](CCC(N)=O)NC(=O)[C@@H](NC(=O)[C@H](C)NC(=O)[C@@H]1CSSC[C@H](NC(=O)[C@H](CCCCN)NC(=O)CC[C@H](NC(=O)CCCCCCCCCCCCCCCCCCC(=O)O)C(=O)O)C(=O)N[C@@H](CC(N)=O)C(=O)N[C@@H]([C@@H](C)O)C(=O)N[C@@H](C)C(=O)N[C@@H]([C@@H](C)O)C(=O)N1)[C@@H](C)O)C(=O)N1CCC[C@H]1C(=O)N[C@@H](CO)C(=O)N[C@@H](CO)C(=O)N[C@H](C(=O)N[C@@H](CC(N)=O)C(=O)N[C@H](C(=O)NCC(=O)N[C@@H](Cc1c[nH]cn1)C(=O)N[C@@H](CC(N)=O)C(=O)N[C@H](C(=O)N[C@@H](Cc1ccc(O)cc1)C(N)=O)[C@@H](C)O)C(C)C)[C@@H](C)O, h-amylin derivative; disulfide bridge and C-terminal amide as told for human amylin; also called compound 17)", "hCTR funct. EC50": 2.35}, {"binder": "{C20 diacid-γGlu}-KCNTATCATQRLAHFLRHSSPNFGAIPSSTNVGSETY-NH2 (disulfide 2-7; SMILES CC[C@H](C)[C@H](NC(=O)[C@H](C)NC(=O)CNC(=O)[C@H](Cc1ccccc1)NC(=O)[C@H](CC(N)=O)NC(=O)[C@@H]1CCCN1C(=O)[C@H](CO)NC(=O)[C@H](CO)NC(=O)[C@H](Cc1c[nH]cn1)NC(=O)[C@H](CCCNC(=N)N)NC(=O)[C@H](CC(C)C)NC(=O)[C@H](Cc1ccccc1)NC(=O)[C@H](Cc1c[nH]cn1)NC(=O)[C@H](C)NC(=O)[C@H](CC(C)C)NC(=O)[C@H](CCCNC(=N)N)NC(=O)[C@H](CCC(N)=O)NC(=O)[C@@H](NC(=O)[C@H](C)NC(=O)[C@@H]1CSSC[C@H](NC(=O)[C@H](CCCCN)NC(=O)CC[C@H](NC(=O)CCCCCCCCCCCCCCCCCCC(=O)O)C(=O)O)C(=O)N[C@@H](CC(N)=O)C(=O)N[C@@H]([C@@H](C)O)C(=O)N[C@@H](C)C(=O)N[C@@H]([C@@H](C)O)C(=O)N1)[C@@H](C)O)C(=O)N1CCC[C@H]1C(=O)N[C@@H](CO)C(=O)N[C@@H](CO)C(=O)N[C@H](C(=O)N[C@@H](CC(N)=O)C(=O)N[C@H](C(=O)NCC(=O)N[C@@H](CO)C(=O)N[C@@H](CCC(=O)O)C(=O)N[C@H](C(=O)N[C@@H](Cc1ccc(O)cc1)C(N)=O)[C@@H](C)O)C(C)C)[C@@H](C)O, h-amylin derivative; disulfide bridge and C-terminal amide as told for human amylin; also called compound 30)", "hCTR funct. EC50": 1.68}, {"binder": "K([AEEA-AEEA-γGlu-C20 diacid])CNTATCATQRLANFLRHSSPNFGAIPSSTNVGSETY-NH2 (disulfide 2-7; N-terminus assumed; SMILES CC[C@H](C)[C@H](NC(=O)[C@H](C)NC(=O)CNC(=O)[C@H](Cc1ccccc1)NC(=O)[C@H](CC(N)=O)NC(=O)[C@@H]1CCCN1C(=O)[C@H](CO)NC(=O)[C@H](CO)NC(=O)[C@H](Cc1c[nH]cn1)NC(=O)[C@H](CCCNC(=N)N)NC(=O)[C@H](CC(C)C)NC(=O)[C@H](Cc1ccccc1)NC(=O)[C@H](CC(N)=O)NC(=O)[C@H](C)NC(=O)[C@H](CC(C)C)NC(=O)[C@H](CCCNC(=N)N)NC(=O)[C@H](CCC(N)=O)NC(=O)[C@@H](NC(=O)[C@H](C)NC(=O)[C@@H]1CSSC[C@H](NC(=O)[C@@H](N)CCCCNC(=O)COCCOCCNC(=O)COCCOCCNC(=O)CC[C@H](NC(=O)CCCCCCCCCCCCCCCCCCC(=O)O)C(=O)O)C(=O)N[C@@H](CC(N)=O)C(=O)N[C@@H]([C@@H](C)O)C(=O)N[C@@H](C)C(=O)N[C@@H]([C@@H](C)O)C(=O)N1)[C@@H](C)O)C(=O)N1CCC[C@H]1C(=O)N[C@@H](CO)C(=O)N[C@@H](CO)C(=O)N[C@H](C(=O)N[C@@H](CC(N)=O)C(=O)N[C@H](C(=O)NCC(=O)N[C@@H](CO)C(=O)N[C@@H](CCC(=O)O)C(=O)N[C@H](C(=O)N[C@@H](Cc1ccc(O)cc1)C(N)=O)[C@@H](C)O)C(C)C)[C@@H](C)O, h-amylin derivative; disulfide bridge and C-terminal amide as told for human amylin; also called compound 25)", "hCTR funct. EC50": 10}, {"binder": "{C20 diacid-γGlu}-KCNTATCATQRLAEFLRHSSPNFGAIPSSTPVGSNTY-NH2 (disulfide 2-7; SMILES CC[C@H](C)[C@H](NC(=O)[C@H](C)NC(=O)CNC(=O)[C@H](Cc1ccccc1)NC(=O)[C@H](CC(N)=O)NC(=O)[C@@H]1CCCN1C(=O)[C@H](CO)NC(=O)[C@H](CO)NC(=O)[C@H](Cc1c[nH]cn1)NC(=O)[C@H](CCCNC(=N)N)NC(=O)[C@H](CC(C)C)NC(=O)[C@H](Cc1ccccc1)NC(=O)[C@H](CCC(=O)O)NC(=O)[C@H](C)NC(=O)[C@H](CC(C)C)NC(=O)[C@H](CCCNC(=N)N)NC(=O)[C@H](CCC(N)=O)NC(=O)[C@@H](NC(=O)[C@H](C)NC(=O)[C@@H]1CSSC[C@H](NC(=O)[C@H](CCCCN)NC(=O)CC[C@H](NC(=O)CCCCCCCCCCCCCCCCCCC(=O)O)C(=O)O)C(=O)N[C@@H](CC(N)=O)C(=O)N[C@@H]([C@@H](C)O)C(=O)N[C@@H](C)C(=O)N[C@@H]([C@@H](C)O)C(=O)N1)[C@@H](C)O)C(=O)N1CCC[C@H]1C(=O)N[C@@H](CO)C(=O)N[C@@H](CO)C(=O)N[C@H](C(=O)N1CCC[C@H]1C(=O)N[C@H](C(=O)NCC(=O)N[C@@H](CO)C(=O)N[C@@H](CC(N)=O)C(=O)N[C@H](C(=O)N[C@@H](Cc1ccc(O)cc1)C(N)=O)[C@@H](C)O)C(C)C)[C@@H](C)O, h-amylin derivative; disulfide bridge and C-terminal amide as told for human amylin; also called compound 31)", "hCTR funct. EC50": 0.717}, {"binder": "K([AEEA-γGlu-C20 diacid])CNTATCATQRLANFLRHSSPNFGAIPSSTNVGSETY-NH2 (disulfide 2-7; N-terminus assumed; SMILES CC[C@H](C)[C@H](NC(=O)[C@H](C)NC(=O)CNC(=O)[C@H](Cc1ccccc1)NC(=O)[C@H](CC(N)=O)NC(=O)[C@@H]1CCCN1C(=O)[C@H](CO)NC(=O)[C@H](CO)NC(=O)[C@H](Cc1c[nH]cn1)NC(=O)[C@H](CCCNC(=N)N)NC(=O)[C@H](CC(C)C)NC(=O)[C@H](Cc1ccccc1)NC(=O)[C@H](CC(N)=O)NC(=O)[C@H](C)NC(=O)[C@H](CC(C)C)NC(=O)[C@H](CCCNC(=N)N)NC(=O)[C@H](CCC(N)=O)NC(=O)[C@@H](NC(=O)[C@H](C)NC(=O)[C@@H]1CSSC[C@H](NC(=O)[C@@H](N)CCCCNC(=O)COCCOCCNC(=O)CC[C@H](NC(=O)CCCCCCCCCCCCCCCCCCC(=O)O)C(=O)O)C(=O)N[C@@H](CC(N)=O)C(=O)N[C@@H]([C@@H](C)O)C(=O)N[C@@H](C)C(=O)N[C@@H]([C@@H](C)O)C(=O)N1)[C@@H](C)O)C(=O)N1CCC[C@H]1C(=O)N[C@@H](CO)C(=O)N[C@@H](CO)C(=O)N[C@H](C(=O)N[C@@H](CC(N)=O)C(=O)N[C@H](C(=O)NCC(=O)N[C@@H](CO)C(=O)N[C@@H](CCC(=O)O)C(=O)N[C@H](C(=O)N[C@@H](Cc1ccc(O)cc1)C(N)=O)[C@@H](C)O)C(C)C)[C@@H](C)O, h-amylin derivative; disulfide bridge and C-terminal amide as told for human amylin; also called compound 26)", "hCTR funct. EC50": 6.34}, {"binder": "{C20 diacid-γGlu}-KCNTATCATQRLAEFLRHSSPNFGAIPSSTNVGPNTY-NH2 (disulfide 2-7; SMILES CC[C@H](C)[C@H](NC(=O)[C@H](C)NC(=O)CNC(=O)[C@H](Cc1ccccc1)NC(=O)[C@H](CC(N)=O)NC(=O)[C@@H]1CCCN1C(=O)[C@H](CO)NC(=O)[C@H](CO)NC(=O)[C@H](Cc1c[nH]cn1)NC(=O)[C@H](CCCNC(=N)N)NC(=O)[C@H](CC(C)C)NC(=O)[C@H](Cc1ccccc1)NC(=O)[C@H](CCC(=O)O)NC(=O)[C@H](C)NC(=O)[C@H](CC(C)C)NC(=O)[C@H](CCCNC(=N)N)NC(=O)[C@H](CCC(N)=O)NC(=O)[C@@H](NC(=O)[C@H](C)NC(=O)[C@@H]1CSSC[C@H](NC(=O)[C@H](CCCCN)NC(=O)CC[C@H](NC(=O)CCCCCCCCCCCCCCCCCCC(=O)O)C(=O)O)C(=O)N[C@@H](CC(N)=O)C(=O)N[C@@H]([C@@H](C)O)C(=O)N[C@@H](C)C(=O)N[C@@H]([C@@H](C)O)C(=O)N1)[C@@H](C)O)C(=O)N1CCC[C@H]1C(=O)N[C@@H](CO)C(=O)N[C@@H](CO)C(=O)N[C@H](C(=O)N[C@@H](CC(N)=O)C(=O)N[C@H](C(=O)NCC(=O)N1CCC[C@H]1C(=O)N[C@@H](CC(N)=O)C(=O)N[C@H](C(=O)N[C@@H](Cc1ccc(O)cc1)C(N)=O)[C@@H](C)O)C(C)C)[C@@H](C)O, h-amylin derivative; disulfide bridge and C-terminal amide as told for human amylin; also called compound 32)", "hCTR funct. EC50": 0.327}]}]}
